{
  "source": "paper PMC6188088",
  "key": {"[1]": {"test_system": "T1, TnpA IS1535 (WT) (Mycobacterium tuberculosis), ORF:81838cbf", "T1 sequence": "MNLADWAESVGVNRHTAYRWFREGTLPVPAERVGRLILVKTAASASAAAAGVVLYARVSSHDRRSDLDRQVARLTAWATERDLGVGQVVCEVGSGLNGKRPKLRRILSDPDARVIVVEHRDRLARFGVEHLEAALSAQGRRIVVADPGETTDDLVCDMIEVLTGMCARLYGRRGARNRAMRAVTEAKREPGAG", "assay": "EMSA"}, "[2]": {"test_system": "TnpA IS1535 (WT) (Mycobacterium tuberculosis)", "assay": "EMSA"}, "[3]": {"target": "TnpA^IS1535, full length, wild type (Mycobacterium tuberculosis)", "assay": "native gel or EMSA; TnpA (32 nM) and TnpA-MBP (8 to 256 nM), alone or mixed, incubated with the IS1535 LEΔ54 DNA probe, which gives only complex I; oligomer bound to DNA judged from the absence of a band of intermediate mobility"}, "[4]": {"target": "TnpA^ISC1926 C-terminal domain (CTD), residues 65-221 (Sulfolobus islandicus)", "assay": "crystal structure; TnpA^ISC1926 CTD (65-221), hanging drop, 20 mM MOPS pH 7.0, 100 mM Na-acetate, 0.1 mM DTT mixed with 8% tacsimate pH 4.0, 20% PEG3350, 25°C; 2.9 Å; two dimers in the asymmetric unit"}},
  "data": [
    {"substance": "AAAAAGAATTCCGACTCCGCCCAATCCGCCAGATTCACGCCGCCAATTAGAACACACTAACGCACACTAAAACACACTCAACACGCAACAGCTCTGAACCCCAGAGCGTTGGCCGACAAGCGCCCACCACACACGGACGTCTTTTT (double strand) [IS1535 LE 149 bp]", "values": [
      {"measurement": "K half", "setting": "[1]", "value": "< 10", "unit": "nM"}
    ]},
    {"substance": "IS1535 LE 149 bp", "values": [
      {"measurement": "K half", "setting": "[2]", "value": "< 10", "unit": "nM"}
    ]},
    {"substance": "IS1535 RE 139 bp", "values": [
      {"measurement": "binding signal", "setting": "[2]; scale: % of probe as PEC", "value": 3}
    ]},
    {"substance": "TnpA^IS1535, full length, wild type (enzyme)", "values": [
      {"measurement": "stoichiometry N", "setting": "[3]", "value": 2}
    ]},
    {"substance": "TnpA^ISC1926 C-terminal domain (CTD), residues 65-221 (domain or fragment)", "values": [
      {"measurement": "stoichiometry N", "setting": "[4]", "value": 2}
    ]}
  ]
}
